Where a chain is given by its changes, count along the chain named.
T1: human Sky (human, UniProt Q06418 41-890)
T1 construct: whole, on cells; Transiently expressed on HEK293T cells (pcDNA3-hSky); also called hSky
T1 sequence (looked up): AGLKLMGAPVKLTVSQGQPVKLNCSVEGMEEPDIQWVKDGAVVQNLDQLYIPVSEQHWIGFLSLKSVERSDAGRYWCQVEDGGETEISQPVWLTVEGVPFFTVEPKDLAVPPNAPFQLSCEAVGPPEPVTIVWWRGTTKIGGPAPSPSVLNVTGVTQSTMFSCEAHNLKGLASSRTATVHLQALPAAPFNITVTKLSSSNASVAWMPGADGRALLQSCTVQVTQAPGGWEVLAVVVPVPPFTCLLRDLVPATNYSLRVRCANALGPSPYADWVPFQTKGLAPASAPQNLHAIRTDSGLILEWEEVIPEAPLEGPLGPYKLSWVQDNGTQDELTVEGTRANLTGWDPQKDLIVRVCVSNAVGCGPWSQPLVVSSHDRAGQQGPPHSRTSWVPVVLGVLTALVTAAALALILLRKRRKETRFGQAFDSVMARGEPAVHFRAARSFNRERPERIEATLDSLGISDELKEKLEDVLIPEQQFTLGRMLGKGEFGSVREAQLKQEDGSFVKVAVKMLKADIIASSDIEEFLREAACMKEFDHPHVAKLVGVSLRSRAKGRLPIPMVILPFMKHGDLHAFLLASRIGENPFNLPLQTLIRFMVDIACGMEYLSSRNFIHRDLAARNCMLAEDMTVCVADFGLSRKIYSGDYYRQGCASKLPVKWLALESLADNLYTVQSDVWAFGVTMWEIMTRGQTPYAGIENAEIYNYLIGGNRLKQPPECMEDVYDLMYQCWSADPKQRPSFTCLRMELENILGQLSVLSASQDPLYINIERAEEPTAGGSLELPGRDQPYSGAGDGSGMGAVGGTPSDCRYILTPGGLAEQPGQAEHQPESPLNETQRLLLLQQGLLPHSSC

T2: human Mer (human, UniProt Q12866 21-999)
T2 construct: whole, on cells; Transiently expressed on HEK293T cells; also called hMer
T2 sequence (looked up): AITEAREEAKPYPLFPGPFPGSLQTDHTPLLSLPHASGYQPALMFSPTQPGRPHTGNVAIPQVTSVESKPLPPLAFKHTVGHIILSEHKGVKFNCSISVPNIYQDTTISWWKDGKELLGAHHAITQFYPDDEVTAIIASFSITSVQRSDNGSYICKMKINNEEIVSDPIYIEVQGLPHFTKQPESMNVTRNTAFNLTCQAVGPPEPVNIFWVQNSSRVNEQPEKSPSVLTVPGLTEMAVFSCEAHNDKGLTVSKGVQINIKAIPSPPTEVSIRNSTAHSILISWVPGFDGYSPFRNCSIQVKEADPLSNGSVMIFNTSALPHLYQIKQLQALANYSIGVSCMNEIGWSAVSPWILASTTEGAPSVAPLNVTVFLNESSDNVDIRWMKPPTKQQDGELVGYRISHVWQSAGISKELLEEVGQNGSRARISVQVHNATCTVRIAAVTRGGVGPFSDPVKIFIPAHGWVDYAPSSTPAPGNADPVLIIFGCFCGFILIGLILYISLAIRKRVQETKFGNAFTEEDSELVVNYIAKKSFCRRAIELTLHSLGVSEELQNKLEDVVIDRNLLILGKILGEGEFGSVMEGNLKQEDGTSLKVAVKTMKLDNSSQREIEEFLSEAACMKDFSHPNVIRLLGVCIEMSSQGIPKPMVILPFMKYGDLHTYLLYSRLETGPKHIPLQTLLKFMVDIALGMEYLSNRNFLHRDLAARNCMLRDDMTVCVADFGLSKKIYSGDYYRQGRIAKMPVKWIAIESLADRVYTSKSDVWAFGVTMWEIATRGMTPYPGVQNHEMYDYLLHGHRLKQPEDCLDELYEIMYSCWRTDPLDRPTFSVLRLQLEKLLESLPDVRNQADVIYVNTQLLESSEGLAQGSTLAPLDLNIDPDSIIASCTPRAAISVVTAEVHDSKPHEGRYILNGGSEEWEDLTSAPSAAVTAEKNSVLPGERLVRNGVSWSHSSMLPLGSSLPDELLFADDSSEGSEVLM

B1: III 11D5 (antibody, rat IgG2a, V domains shown)
VH: EVQLQESGPGLVKPSQSLSLTCSVTGYSITSNYWGWIRKFPGNKMEWIGHITNSGNTTYNPSLKSRISISRDTSRNQFFLQLNSVTTEDTATYYCAKGAFDYWGQGVMVTVSS
VL: DIQMTQSPSSMSTSLGDRVTITCRASQDIGNYLSWFQQKVGKSPRRMIYGAIKLAVGVPSRFSGSRSGSDYSLTISSLESEDMAIYYCLQYIQFPLTFGSGTKLELK
notes: rat hybridoma antibody, antagonistic
B2: I 11B7 (antibody, V domains shown)
VH: EVQLQESGPGLVKPSQSLSLTCSVTGYSITSNYWGWIRKFPGDKMEWMGYITYSGSTSYNPSLKSRISITRDTSKNQFFLQLNSVTSEDTATYYCAITTFYYWGQGVMVTVSS
VL: DIQMTQAPSSLPASLGDRVTITCRASQDIGNYLRWFQQKPGKSPRLMISGATNLAAGVPSRFSGSRSGSDYSLTISSLESEDMADYYCLQSKESPWTFGGGTKLELK
notes: as for B1
B3: I 10D12 (antibody, V domains shown)
VH: EVQLQESGPGLVKPSQSLSLTCSVTGYSITSNYWGWIRKFPGNKMEWMGYITNSGGTAYNPSLKSRISITRDTSKNQFFLQLNSVIPEDSATYFCSRTPWDWGQGVMVTVSS
VL: B2 VL with T22A, L73R
notes: rat hybridoma antibody, antagonistic; subclass G1

target: T1, human Sky; experiment: flow cytometry, transiently transfected HEK293T cells
Description: (§1) FIG. 3. Flow cytometry analysis of cross-reactivity of rat-anti AXL antibodies with mouse and cynomolgus monkey AXL as well as human Mer and Sky. HEK293T fibroblasts were transiently transfected with pcDNA3, pcDNA3-hAXL, pcDNA3 mAXL, pcDNA3-cyAXL, pcDNA3-hMer, or pcDNA3-hSky. […] See text for details.
(§2) For FACS analysis, 2×10⁵ cells were harvested with 10 mM EDTA in PBS, washed once with FACS buffer (PBS, 3% FCS, 0.4% azide) and seeded on a 96 well round bottom plate. […] After incubation on ice for 1 h, cells were washed twice with chilled FACS buffer and resuspended with PE-conjugated donkey anti-rat (Jackson) secondary antibody diluted 1:50 in FACS buffer (100 μl/well) or PE-conjugated donkey anti-mouse secondary antibody for control. Protected from light, cells were incubated on ice for 30 min, washed twice with FACS buffer and analyzed using an Epics XL-MCL flow cytometer (Beckman Coulter).

Binding result, no binding (tested: 10 µg/ml):
B1, B2, B3

target: T2, human Mer; experiment: as above
Description: as §1, §2

Binding result, no binding (tested: 10 µg/ml):
B1, B2, B3
